The values below come from the DeepSol protein solubility set.

This series is described as follows: soluble on expression in E. coli; label from the status in PepcDB or PDB records.
Turning to “MKILVIGAGPAGLVFASQLKQARPLWAIDIVEKNDEQEVLGWGVVLPGRPGQHPANPLSYLDAPERLNPQFLEDFKLVHHNEPSLMSTGVLLCGVERRGLVHALRDKCRSQGIAIRFESPLLEHGELPLADYDLVVLANGVNHKTAHFTEALVPQVDYGRNKYIWYGTSQLFDQMNLVFRTHGKDIFIAHAYKYSDTMSTFIVECSEETYARARLGEMSEEASAEYVAKVFQAELGGHGLVSQPGLGWRNFMTLSHDRCHDGKLVLLGDALQSGHFSIGHGTTMAVVVAQLLVKALCTEDGVPAALKRFEERALPLVQLFRGHADNSRVWFETVEERMHLSSAEFVQSFDARRKSLPPMPEALAQNLRYALQRLEHHHHHH”, the “soluble on expression in E. coli” value is on record as “soluble”.

Take “SSVPPGSIIVSDWHRCPDSREFFSKILHKKRRRKFGLLEAPMMPPQMNVDLVRYKVFLSGKTGVGKSALAARLAGLDLPKMHYETTGIETTVVFWPVRLKESGRVLFFRFELWDCGESAMRRFDHMLLSCKEKVDAILFLFSFTDRGSFDDLTNQISRITEPSDRVVKLVVGTKFDLFMHTDVTESDVTHFQEVWGLPVFRVGGDVSAGLGEVAPLLNALAENLWHQDCMAASSVSISPQAALRETSSEIIV”: the “soluble on expression in E. coli” value is “not soluble”.

In the case of “MNNYTIKDITRASGGFAMLAVDQREAMRLMFAAAGAKTPVADSVLTDFKVNAAKILSPYASAVLLDQQFCYRQAVEQNAVAKSCAMIVAADDFIPGNGIPVDNVVLDKKINAQAVKRDGAKALKLLVLWRSDEDAQQRLNMVKEFNELCHSNGLLSIIEPVVRPPRCGDKFDREQAIIDAAKELGDSGADLYKVEMPLYGKGARSDLLTASQRLNGHINMPWVILSSGVDEKLFPRAVRVAMEAGASGFLAGRAVWSSVIGLPDTELMLRDVSAPKLQRLGEIVDEMMAKRR”, the “soluble on expression in E. coli” value is recorded as “soluble”. To “MAHHHHHHSLDSFIMRLLNKPVPGGVAVVDLGEEGPPPRAFYQGKPVLVVREEGRRWIAVVGIPLSTKPGPQKLEVRAATGNHEERFSVGSKHYREQRITLKNKRQVNPLPEDLKRIERELAEQTAAYRRFSPGLPSNLMLDKPVDGPLSSPFGLRRFFNGEERNPHSGLDFAVPAGTPIKAPAAGKVILIGDYFFNGKTVFVDHGQGFISMFCHLSKIDVKLGQQVPRGGVLGKVGATGRATGPHMHWNVSLNDARVDPAIFIGAFQPEG” belongs “soluble”; to “MNEKQKRFADEYIMNGCNGKKAAISAGYSKKTAESLASRLLRNVNVSEYIKERLEQIQEERLMSITEALALSASIARGEPQEAYSKKYDHLNDEVEKEVTYTITPTFEERQRSIDHILKVYGAYIDKKEITQKNIEINIGEYDDESLEHHHHHH”, “soluble”. To “SSEASRDDYKIQSFDAQTQQLLKTALKDPGAVDLERVANVIVDHSLQDCVFSKEAGRMCYAIIQAESKQAGQSVFRRGLLNRLQKEYDAREQLRACSLQGWVCYVTFICNIFDYLRVNNMPMMALVNPVYDCLFQLAQPESLSREEEVDCLVLQLHRVGEQLEKMNGQRMDELFILIRDGFLLPTDLSSLARLLLLEMIEFRAAGWKTTPAAHKYYYSEVSD” belongs “soluble”; to “MGSDKIHHHHHHMKEILTVTELNSYIANLLDSDPFLGQLWLRGEISGFRLYQQSGHMYFTLKDEDSTISAVMFKSRARGLKFKPKDGMEVLLRASVSVFARQGKYQLYVEEMQPYGIGGLFLYLEELKKKLAAKGYFAPERKKAIPAFVQRVGIVTSQDGAALRDICRILKQRHPGVEVVLAHSSVQGSEAPGELAEGLRLLNSYAEVELIIIGRGGGSYEDLMAFNSELVVQAIYESNIPVISAVGHEVDFTLADLVADLRAATPSQAASLAVADMQALSRQLDNYQQRLLRAMQRKLLYYTEIIDRLMMKRIWKQPRSLLHMREELLSQLEKSLSRGMAEIFREKKMKLSMNMAALDSLSPLKIMERGYVLLQKEGRIIRDEQQVQIGDRLEVAMRHADLEIEVIKKERVKRWKS”, “not soluble”; to “VNVVQLASAPLHRIVAYTNESCALALYRDQDATLVFAKQVESANQLRYQLDLYRPVSVLWGASGHAVLAHLPPERVRTLLKKEPLSPTGLAALPARELNRDLKQIREQGYSVSTRGEKIEGAAGISTPIFGTGGHVIGCFSLFIPRIRYPEHRETELAQLLVREAGALSDVLAGRQAAPA”, “not soluble”. As to “MGREALGKCPVCNNETTITRITCEKCNTTIEGRFDLCKFCRLTPEQKLFVDVFIKCRGNIKEVEKELGVSYPTVKNKLEDVANALGHKSEEAPVEETNRKEILDKLYEGEISVDEALELLKG”, the “soluble on expression in E. coli” value is “not soluble”. On to “MSLNLPSFTLDIKLAGDGPAGVEKQIQQMQAMVDDRVDLIIVQPTDNAALSSPLQAANQAGIPVVAYDQYISGGHLSAFVTSNNYQAGFLDGEYMAHHFADDHTIQIILVEYPYVSSTIDRVDGFFDALNQYKQPYRILRSYQAVEPVQGRAVGQQILQDFPQPGSVDALFTINDGGGLAIVDELEKAGRHELFVATIDGDPNSVARIRKGSIIKIDSAQFCGPIGAEAMRAAYAILTAGKVHEHWLVPVFPITRQSVAHYPGWSGPIPEHYSNPCLTFLCREGHHHHHH”, for which the “soluble on expression in E. coli” value was “not soluble”. To “MGSDKIHHHHHHMNNEFYNQGLEKAKQRDYAGAIEEFSRALKLTPYFAEAYLQRGLAYYDSGAILLAVSDYTEVIRINPESVEAYYCRSLARLALKNLPGALEDVEQAIRLNINYAAAHHLRGTVRRKQGYIQDAIASFKQAAELYLQQKDQENCRLCLEKIKQLQPPKQSTIQPTKSPIAPITSVNEYFTQLLDKAEQGDTREAIADLNWILQADPQDAQAYCCRGVVRCKMGNYREAIADFNQALQLNFQDAVVYRNRGKARSLLGDHRGAIADFNQAIQIQPEDTLGYVARGNTYRAMGNYLGAIQDYGKALQINPHDAQAYYNRGIAYTFLEEMQNAVEDYQRAASIFCEQQDWENYQLTQDSLKQIQTSIPEYKQQKSNVLRQKLLRLVGGYWEIAQRLIQQQKDYQPGMSEEWYMQKVIDDLERDRGR” belongs “not soluble”; to “GSMDQRQKLQHWIHSCLRKADKNKDNKMNFKELKDFLKELNIQVDDGYARKIFRECDHSQTDSLEDEEIETFYKMLTQRAEIDRAFEEAAGSAETLSVERLVTFLQHQQREEEAGPALALSLIERYEPSETAKAQRQMTKDGFLMYLLSADGNAFSLAHRRVYQDMDQPLSHYLVSSSHNTYLLEDQLTGPSSTEAYIRALCKGCRCLELDCWDGPNQEPIIYHGYTFTSKILFCDVLRAIRDYAFKASPYPVILSLENHCSLEQQRVMARHLRAILGPILLDQPLDGVTTSLPSPEQLKGKILLKGKKLGGLLPAGGENGSEATDVSDEVEAAEMEDEAVRSQVQHKPKEDKLKLVPELSDMIIYCKSVHFGGFSSPGTSGQAFYEMASFSESRALRLLQESGNGFVRHNVSCLSRIYPAGWRTDSSNYSPVEMWNGGCQIVALNFQTPGPEMDVYLGCFQDNGGCGYVLKPAFLRDPNTTFNSRALTQGPWWRPERLRVRIISGQQLPKVNKNKNSIVDPKVIVEIHGVGRDTGSRQTAVITNNGFNPRWDMEFEFEVTVPDLALVRFMVEDYDSSSKNDFIGQSTIPWNSLKQGYRHVHLLSKNGDQHPSATLFVKISIQD”, “soluble”; to “MNFHHLAYWQDKALSLAIENRLFINGEYTAAAENETFETVDPVTQAPLAKIARGKSVDIDRAMSAARGVFERGDWSLSSPAKRKAVLNKLADLMEAHAEELALLETLDTGKPIRHSLRDDIPGAARAIRWYAEAIDKVYGEVATTSSHELAMIVREPVGVIAAIVPWNFPLLLTCWKLGPALAAGNSVILKPSEKSPLSAIRLAGLAKEAGLPDGVLNVVTGFGHEAGQALSRHNDIDAIAFTGSTRTGKQLLKDAGDSNMKRVWLEAGGKSANIVFADCPDLQQAASATAAGIFYNQGQVCIAGTRLLLEESIADEFLALLKQQAQNWQPGHPLDPATTMGTLIDCAHADSVHSFIREGESKGQLLLDGRNAGLAAAIGPTIFVDVDPNASLSREEIFGPVLVVTRFTSEEQALQLANDSQYGLGAAVWTRDLSRAHRMSRRLKAGSVFVNNYNDGDMTVPFGGYKQSGNGRDKSLHALEKFTELKTIWISLEA”, “soluble”. In the case of “MSAIEVTNLVKKFHGQTVLHGIDLEVKPGEVVAIIGPSGSGKTTLLRCINLLEQPEAGTIKVGDIIIDTARPFSQQKGLIRQLRQHVGFVFQSFNLFPHRTVLENIIEGPVIVKGEPKAEATALARELLAKVGLAGKESRYPRRLSGGQQQRVAIARALAMRPEVILFDEPTSALDPELVGEVLNTIRQLAQEKRTMVIVTHEMSFARDVADRAIFMDQGQIVEQGPAKTLFADPQHPRTRQFLEKFLVK” it was “not soluble”; in that of “MAKQDVIELEGTVLDTLPNAMFKVELENGHEILAHVSGKIRMNYIRILPGDKVTVEMSPYDLTRGRITYRYK”, “not soluble”; in that of “MQRHPTPNARNSLWRWTDAKHPLRVALNYVVIVLARISPSLHAKNWLLARIGVTVGDGVAWGLESTPDVFWPELVTVGDDAIIGYDATLLCHEFLHDEYRTGAVVVEDRAMIGAGAVVLPGVTIGADAQVAANSLVTADVPPGETVAGVPLEHHHHHH”, “not soluble”. To “MGSDKIHHHHHHMAVVQHHLPLSARLPARGIFEDDWRDRPSKRHPYPVILIHGTGVTKGDWMELGHALRSLGYAVWAPDFGMRSTAAVAESAAQVGAYIDAVLTVTKAKKAIVVGHSQGGILARYWMHNLDGANKVSHLISLAVPHHGTSHGGMMSPLGRTPRGTAVIDSLITGFFGASGFEMLHDSELIAQLNEHGDTLPYVYYSCIATRSDTIIQPVESCFLHGKLVRNIYAQAVSKHAIILHEDMPHDPRVRRLVIAEIERVERLTIPS” belongs “not soluble”; to “MITTPLVHVASVEKGRSYEDFQKVYNAIALKLREDDEYDNYIGYGPVLVRLAWHISGTWDKHDNTGGSYGGTYRFKKEFNDPSNAGLQNGFKFLEPIHKEFPWISSGDLFSLGGVTAVQEMQGPKIPWRCGRVDTPEDTTPDNGRLPDADKDAGYVRTFFQRLNMNDREVVALMGAHALGKTHLKNSGYEGPWGAANNVFTNEFYLNLLNEDWKLEKNDANNEQWDSKSGYMMLPTDYSLIQDPKYLSIVKEYANDQDKFFKDFSKAFEKLLENGITFPKDAPSPFIFKTLEEQGL”, “soluble”.

In the case of “MKISVLVPTLGTREKEIRRLLETLEKQSYKDFEIIFVTQDNHEIVKDIIYKYSNLDIKQIEMSVKGLSRARNRGLEQASGEIVVLSDDDCWYPANAFEIVVNAFKKRQCAKIVLSQIFDPEKNIPYKNYTSDEEYVRNKLQLMSKSSIEVAFKKDLVMNKKFDERLGLGSEFVCGEEVDFLLSNYEKNAIFYIPEVTVYHKKKENGSSNKQIIAKGAIYGKNFNIFICVLVLLRDLMLKKENNFKYFFEGYNEYFKRTN”, the “soluble on expression in E. coli” value was “not soluble”. Take “MAHHHHHHMMEHLNIEKEAVTYASLIAALHNPQYVLPGHTAKELEAHLPGGVSSQQHTNVGEGGGTVTEGQASGPTSNSVDLSGTKTSYEAYRQERIEAGMAWFAACHSAHRTADVFNELLYLLRAKSHWCQFNTVLVQLRGNAVVTETEWPERLSEAGEGVPPSASAAGGASPGSVTILAPRWSTWPNGKTYELLIQRARYVHQWEVMWALYEEMIATGVHGTARVYEVLLLEARSHPPQAVLAAERSGNSDGASSFLLRLYEELRRNGSDVHSFTGTVNVVNAWTRARSRSNRWQS”: the “soluble on expression in E. coli” value is reported as “not soluble”.
